Assay results published in the supplement of paper PMC9170038.

Test system: MS2 coat protein
Assay: apparent KD of MS2 coat protein; designed switch direction (-1 OFF switch, 1 ON switch): -1; higher = weaker reporter binding
Method in brief: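 Designed RNA switches were transcribed on Illumina chips by stalled E. coli RNA polymerase and titrated with SNAP-549-labelled MS2 coat protein from 0.7 or 1.5 nM, doubling to 3 µM. Step length ran from 0.8–1.5 h at the lowest concentration to 10–20 min at the highest. The apparent KD is the median over clusters for each design, from curve-fitted normalised cluster fluorescence.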

[1] = input ligand: microRNA oligo, concentration not stated
[2] = Eterna round: R95, input ligand: FMN 200 uM
[3] = Eterna round: R95, input ligand: microRNA oligo, concentration not stated
[4] = Eterna round: R95, input ligand: none

Sequence	apparent KD of MS2 coat protein (input ligand: FMN 200 uM) [nM]	apparent KD of MS2 coat protein [1] [nM]	apparent KD of MS2 coat protein (input ligand: none) [nM]	apparent KD of MS2 coat protein [2] [nM]	apparent KD of MS2 coat protein [3] [nM]	apparent KD of MS2 coat protein [4] [nM]
UCGUUUCGUGUAGGAUAUUGGCCUGCUCUGGGUCGAGAAGGACAUGAGGAUCACCCAUGUAUGUUAUUAUCACGCGUGGCGCAU [Design 82] (Eterna round: R96, puzzle: Exclusion NG 1)	124	34	36.6			
AAAAAGGUAGGAUAUACGAAAAAAAAGGGUAAAAUAAAUAAACAUGAGGAUCACCCAUGUAGAAGGACCAAAAA [Mat - Exclusion 2 - Tesla mod - D38] (Eterna round: R96, puzzle: Exclusion 2)		22.8				
UUAUAUAAUGUGAGGAUAUGCUGGUCCAUAGAUCAGCAGAAGGCACAUGAGGAUCACCCAUGUAGUAAAUUUUA [Mat - Exclusion 4 - JL Mod - D12] (puzzle: Brourd's mod of Exclusion 4)				24.2	14.5	14.8
GGAUUACAUGAGGAUCACCCAUGUCAGGAUAUGAAAGCAUAUGCCGAAAGGCAUAUGCGCAGAAGGGACAAUAU [AK-MS2ROC-r4-exclusion1-3.0] (Eterna round: R97, puzzle: Exclusion 1)	45.7		27.5			
CGUGACUGAGGAUAUCUAUAAUAUCACAUGAGGAUCACCCAUGUCCAGCGAAAGCUGGAGGGAGAAGGCAGUCACG [Fiskers Ex 5 - 29] (puzzle: Exclusion 5)				53	127	75.3
AAGAAGUCAGGAUAUGCUAAAGAAAUAAAAAGAAAGAAAGAACAUGAGGAUCACCCAUGUAGAAGGGACAAGAA [Seheqenre Sankhptahi] (Eterna round: R96, puzzle: Exclusion 2)		31.8				
GUUAACGCAGGAUAUUAGUACAUGCACAUGAGGAUCACCCAUGUUUAGUGGGUCUAGGAAUAAGAAGGGCGAUGAA [EX5 #21] (Eterna round: R97, puzzle: Exclusion 5)	210		227			
CCAGGCAGUGUGAGGAUAUGCUGGUGCAUACAUCAGCAGAAGGCACAUGAGGAUCACCCAUGUGAAGAGCUUGG [Mat - Exclusion 4 - JL Mod - D98] (puzzle: Brourd's mod of Exclusion 4)				179	16.9	27.5
AGCUGUGGCCGAGGAUAUCAAGAACCAUGGAAAACCAUGGAACCUUGACAUGAGGAUCACCCAUGUGAGAAGGCGGUCUCAGCA [Eli eng2 - 026] (Eterna round: R96, puzzle: Exclusion NG 2)		11.1				
GGUGCGUAUGUGAGGAUAUGCUGGUCCUUGGAUCAGCAGAAGGCACAUGAGGAUCACCCAUGUGGUGUCGUCCC [salish99_Bmod_Ex4_021] (puzzle: Brourd's mod of Exclusion 4)					241	
AGAAAUGCCCAUGGCCGCAAGCUCUUUGCUUGUCUUACCACAUGAGGAUCACCCAUGUGACAUGGGCUCCUUAUAAU [Riquarge] (puzzle: Sensor v3, turn-off variant 2)				13.9	9.77	12
UUUGUUUAUGUAGGAUAUGCCUGGCGUGCCUUUGCAGAAGGACAUGAGGAUCACCCAUGUAUUGCGGUCUGCGUUCAGAUCGCU [salish99_ExNG1_r4_037] (Eterna round: R96, puzzle: Exclusion NG 1)	37.1	26.8	34.8			
AGUAGGUCUACCUUGGUGGAUCUGCAUUUAGGCAGGUGUACAUGAGGAUCACCCAUGUCCUCAUUUGCUCGUCUUAU [JL turnoff v2 99.29] (puzzle: Sensor v3, turn-off variant 2)				807	488	952
UGCAUGCUAGGAUAUACGGGACAUUAGGGUUCGUCGUGUGGACAUGAGGAUCACCCAUGUAGAAGGAGCGUGCU [Mod3 of JL-ex2-2.15 mat747 mod] (puzzle: Exclusion 2)					78.2	
CUCAUGUGAGGAUAUCAGUAGUAAAAAAAUAAAAUUACUACUGAGAAGGCACAUGAGGAUCACCCAUGUGUCUU [EX4 331: Super Stable 31] (Eterna round: R96, puzzle: Exclusion 4)		13.3				
AGAACUCUAGUAGGAUAUGUCGGAUAUGUUGUUGAGGUUCACCCAACGACGUCAAUGACAGAGGGACAGAAGGACUCCUGUUCC [pwkr exNG2 2xFMN 1xF5.9] (Eterna round: R96, puzzle: Exclusion NG 2)	873	506	1110			
CGUCAGAUCGCAGGAUAUGUUAGAUGAGCACAGAAUGUCCAGACCACAUGAGGAUCACCCAUGUAACAGAAGGGCGGUCUACGG [Eternabot solution 29] (Eterna round: R96, puzzle: Exclusion NG 2)	79.3	195	95.6			

Sequence	apparent KD of MS2 coat protein (input ligand: FMN 200 uM) [nM]	apparent KD of MS2 coat protein [1] [nM]	apparent KD of MS2 coat protein (input ligand: none) [nM]	apparent KD of MS2 coat protein [2] [nM]	apparent KD of MS2 coat protein [3] [nM]	apparent KD of MS2 coat protein [4] [nM]
AAGUCCUUGUGGACACAUGAGGAUCACCCAUGUGCGGUCAGCGAGGAUAUCGGUCUAUAAUGUGACGAGAAGGCGCGGACCGAU [Ex NG3 #61] (Eterna round: R96, puzzle: Exclusion NG 3)	26.2	15.3	21.3			
CAGUACUGAGGAUAUACAUGAGGAUCACCCAUGUGUUCCAGCUAGGAAACGAGCAAAAGUAGAAGGCAGUACUG [salish99_ex3_r3_071] (puzzle: Exclusion 3)					19.7	
AGGCGUGCUGAGGAUAUACUACCGGGUGCGAUAGUAGAAGGUAGCACAUGAGGAUCACCCAUGUGGUCAGAUGC [Qureaor] (puzzle: Exclusion 6)				56.3	20	23.6
UACUAUAAGGAGGAUAUCGUAUCGGAAACGAUACGAGAAGGCUUAACAUGAGGAUCACCCAUGUUCUUCAAUAU [Fiskers Ex 6 - 26] (puzzle: Exclusion 6)				16	16.2	14.6
ACUCAGUGAGGAUAUCGCCAGAGAGCCGCAACAGCUCCUGAUGAGAAGGCACAUGAGGAUCACCCAUGUAAGCA [EX4 C.19] (Eterna round: R97, puzzle: Exclusion 4)	321		116			
AGCCUGUAAUCCCUCAGACAUGAGGAUCACCCAUGUGGAUGUAAGGAUAUAGGUGCAAUUGCAAUCUAGAAGGUACGCCGUCAG [Eternabot solution 32] (Eterna round: R96, puzzle: Exclusion NG 3)	44.8	23.1	31.4			
GUCUCACAUGAGGAUCACCCAUGUGAGGAUAUGGUUUCGCUGGCCGUAGCCAGUGGAACCAGAAGGCGCAUGAU [Mat - Exclusion 1 - JL Mod - D3] (Eterna round: R97, puzzle: Exclusion 1)	24.7		23			
CUUUUGUGAGGAUAUUAGUAGUAAUACAAUAGUAUUACUACUGAGAAGGCACAUGAGGAUCACCCAUGUUCCUC [Ex4 344 Omei mod 5] (puzzle: Exclusion 4)					36.5	
AAGGAGUGAGGAUAUGCGCGGGCACGCUCUAAAUAAGAAAGACAUGAGGAUCACCCAUGUAGAAGGCACAAUAA [Leedla] (puzzle: Exclusion 2)					17.8	
CGAUGACCGGUGAGGAUAUCGUGUUCGAAAGAACGUGAGAAGGCACAUGAGGAUCACCCAUGUGAUCCUCAUCG [Omei Ex4B A33] (Eterna round: R97, puzzle: Brourd's mod of Exclusion 4)	25.9		18.2			
GACCUCAGUCAGGAUAUAGAUAGCGAUAGCGAAUUAGAAGGGACCACAUGAGGAUCACCCAUGUUAGUAUCAUU [Eternabot (L2) Solution 10] (Eterna round: R97, puzzle: Exclusion 6)	38.9		34.2			
CUUAAAAGGUAGGAUAUGCUAGACGAAAGUCUAGCAGAAGGACCUACAUGAGGAUCACCCAUGUGUCCAAUAAG [Mat - Exclusion 6 - Eli Mod - D23] (Eterna round: R97, puzzle: Exclusion 6)	50.6		86.3			
CUAGCGAGUGUAGGAUAUCGGACUGUUUCAGUCUGAGAAGGACAUGAGGAUCACCCAUGUGAAGCUACGUGAGUAGCACGCUAG [JL ENG1 3.87] (Eterna round: R96, puzzle: Exclusion NG 1)	74.5	18.3	24.5			
CUUAGACAUGAGGAUCACCCAUGUGAGGAUAUGAAAUUAAUUAAUUAUUAAGUAUGAAUCAGAAGGCACAUAUG [Mat - Mod of Hyphema D36] (puzzle: Exclusion 1)				79.9	81.6	78.9
ACAAGCAUUUAUAUUUUAAAAUUUUAUCGUCUUAUAAUUACAUGAGGAUCACCCAUGUAUAAAGGGUGAAUAAUAAU [JR_Sensorv2_tov2_Sub550] (Eterna round: R96, puzzle: Sensor v2, turn-off variant 2)	93.9	203	91.8			
CCGCUGUCAGGAUAUCGUGCAUACAACGAAAGUUCUAUGUGCGAGAAGGGACAUGAGGAUCACCCAUGUUUGCG [Omei Ex4 A20] (Eterna round: R97, puzzle: Exclusion 4)	41.3		28.2			
CCUCGAAGGCAAGGAUAUCCUACAUUGUUCUGGCCCGGGCAUGCUACAUGAGGAUCACCCAUGUGGGAGAAGGUGCGCCACGGC [Design 30] (Eterna round: R96, puzzle: Exclusion NG 2)	56.7	45	58.3			
